Data published in patent US11541128B2, “Multi-drug antibody drug conjugates” (Seagen Inc., priority 2016, dated 2023).

B1: hLIV22-Linking Assembly Unit Aa (8)-MMAE (16) (conjugate, chains of the INN, looked up)
VH: QVQLVQSGAEVKKPGASVKVSCKASGLTIEDYYMHWVRQAPGQGLEWMGWIDPENGDTEYGPKFQGRVTMTRDTSINTAYMELSRLRSDDTAVYYCAVHNAHYGTWFAYWGQGTLVTVSS
VL: DVVMTQSPLSLPVTLGQPASISCRSSQSLLHSSGNTYLEWYQQRPGQSPRPLIYKISTRFSGVPDRFSGSGSGTDFTLKISRVEAEDVGVYYCFQGSHVPYTFGGGTKVEIK
modifications: Linking Assembly Unit Aa-MMAE conjugate
B2: hLIV22-Linking Assembly Unit Aa (8)-Comp. Aa (8)-MMAE (8) (conjugate, chains of the INN, looked up)
VH: B1 VH
VL: B1 VL
modifications: Linking Assembly Unit Aa, Compound Aa, MMAE conjugate
B3: hBU12 Co-Conjugate (conjugate, chains of the INN, looked up)
VH: QVQLQESGPGLVKPSQTLSLTCTVSGGSISTSGMGVGWIRQHPGKGLEWIGHIWWDDDKRYNPALKSRVTISVDTSKNQFSLKLSSVTAADTAVYYCARMELWSYYFDYWGQGTLVTVSS
VL: EIVLTQSPATLSLSPGERATLSCSASSSVSYMHWYQQKPGQAPRLLIYDTSKLASGIPARFSGSGSGTDFTLTISSLEPEDVAVYYCFQGSVYPFTFGQGTKLEIK
modifications: co-conjugate with two drug payloads
B4: hBU12-Linking Assembly Unit Aa-Comp. Ab (8) (conjugate, chains of the INN, looked up)
VH: B3 VH
VL: B3 VL
modifications: linker assembly with compound Ab
B5: hBU12-Linking Assembly Unit Aa-Comp. Ab (16) (conjugate, chains of the INN, looked up)
VH: B3 VH
VL: B3 VL
modifications: linker assembly with compound Ab
B6: hBU12-Linking Assembly Unit Aa-Comp. Aa (8)-Comp. Ah (8) (conjugate, chains of the INN, looked up)
VH: B3 VH
VL: B3 VL
modifications: linker assembly with compounds Aa and Ah
B7: hBU12-Linking Assembly Unit Aa-Comp. Ah (8) (conjugate, chains of the INN, looked up)
VH: B3 VH
VL: B3 VL
modifications: linker assembly with compound Ah
B8: hBU12-Linking Assembly Unit Aa-Comp. Ab (8) Comp. Aa (8) (conjugate, chains of the INN, looked up)
VH: B3 VH
VL: B3 VL
modifications: linker assembly with compounds Ab and Aa
B9: hBU12-Linking Assembly Unit Aa-Comp. Aa (16) (conjugate, chains of the INN, looked up)
VH: B3 VH
VL: B3 VL
modifications: Linking Assembly Unit Aa-Compound Aa drug conjugate
B10: hBU12-Linking Assembly Unit Aa-Comp. Aa (8) (conjugate, chains of the INN, looked up)
VH: B3 VH
VL: B3 VL
modifications: linker assembly with compound Aa

Legend:
[1] = tested on: CD30(−) U-266 cells; assay: Binding to CD30(−) cells; details: CD30(−) U-266 cells (not shown)
[2] = tested on: MCF-7 breast carcinoma cells; assay: Colony forming assay, MCF-7; type: cell-based; details: ADC 100 ng/mL for 48 hours, recovery 7-9 days, N=2
Protocol: This analysis was conducted on either JHH-7 (hepatocarcinoma cells) or MCF-7 (LIV-1positive) cells using antigen specific dual-auristatin ADCs. […] A dual-auristatin ADC targeting the LIV-1antigen on MCF-7 cells also allowed for less outgrowth of resistant colonies compared to single-drug ADCs.
For testing of LIV-1 targeted ADCs, MCF-7 breast carcinoma cells (ATCC) were plated in 6-well tissue culture plates at a density of 10,000 cells per well. ADCs were added to cells at a concentration of 100 ng/mL for 48 hours. At this time, media was removed and cells were washed with PBS. Fresh media was added and the cells allowed to recover for 7-9 days. Cells were then washed with PBS, fixed with 3.7% paraformaldehyde, stained with 0.5% crystal violet, and then counted. Each condition was conducted with N=2.

[3] = tested on: Granta-519; assay: In vitro cytotoxicity, Granta-519; type: cell-based; details: co-administration IC50 vs co-conjugate IC50
[4] = tested on: SU-DHL-16; assay: In vitro cytotoxicity, SU-DHL-16; type: cell-based; details: co-administration IC50 vs co-conjugate IC50
[5] = tested on: Nalm-6; assay: In vitro cytotoxicity, Nalm-6; type: cell-based; details: hBU12 conjugates targeting CD19
[6] = tested on: RL; assay: In vitro cytotoxicity, RL; type: cell-based; details: hBU12 conjugates targeting CD19
[7] = tested on: WSU-DLCL2; assay: In vitro cytotoxicity, WSU-DLCL2; type: cell-based; details: hBU12 conjugates targeting CD19
[8] = tested on: Raji; assay: In vitro cytotoxicity, Raji; type: cell-based; details: hBU12 conjugates targeting CD19

Row | Molecule | IC50 [5] [ng/mL] | IC50 [6] [ng/mL] | IC50 [7] [ng/mL] | IC50 [8] [ng/mL] | other results
1 | cAC10: Chimeric anti-CD30 monoclonal antibody, naked antibody | – | – | – | – | binding to CD30(−) U-266 cells [1]: Neither cAC10 or cAC10-4-(3-1) bound
2 | B1 | – | – | – | – | Colony forming units [2]: 42.5
3 | B2 | – | – | – | – | Colony forming units [2]: 19.5
4 | B3 | – | – | – | – | Fold difference [3]: 41.5; Fold difference [4]: 2.5
5 | B4 | 5 | 340 | – | – | –
6 | B5 | – | – | 8.6 | 6.9 | –
7 | B6 | – | 2 | 2 | 5 | –
8 | B7 | 9 | 60 | 7 | 97 | –
9 | B8 | 2 | 1 | – | 1.6 | –
10 | B9 | – | – | 1.5 | 2.1 | –
11 | B10 | 8 | 4 | – | – | –
